From patent US20180327506A1 (AbbVie / Abbott, published 2018)
Where two headings read alike, the source gives them in different places.

Assays:
[1] = molecular target: T1, full-length mature human EMR2 (residues Q24-N823) with N-terminal aspartic acid/lysine epitope tag, … (human, UniProt Q9UHX3 24-823); assay: cell-based or functional assay
T1 sequence: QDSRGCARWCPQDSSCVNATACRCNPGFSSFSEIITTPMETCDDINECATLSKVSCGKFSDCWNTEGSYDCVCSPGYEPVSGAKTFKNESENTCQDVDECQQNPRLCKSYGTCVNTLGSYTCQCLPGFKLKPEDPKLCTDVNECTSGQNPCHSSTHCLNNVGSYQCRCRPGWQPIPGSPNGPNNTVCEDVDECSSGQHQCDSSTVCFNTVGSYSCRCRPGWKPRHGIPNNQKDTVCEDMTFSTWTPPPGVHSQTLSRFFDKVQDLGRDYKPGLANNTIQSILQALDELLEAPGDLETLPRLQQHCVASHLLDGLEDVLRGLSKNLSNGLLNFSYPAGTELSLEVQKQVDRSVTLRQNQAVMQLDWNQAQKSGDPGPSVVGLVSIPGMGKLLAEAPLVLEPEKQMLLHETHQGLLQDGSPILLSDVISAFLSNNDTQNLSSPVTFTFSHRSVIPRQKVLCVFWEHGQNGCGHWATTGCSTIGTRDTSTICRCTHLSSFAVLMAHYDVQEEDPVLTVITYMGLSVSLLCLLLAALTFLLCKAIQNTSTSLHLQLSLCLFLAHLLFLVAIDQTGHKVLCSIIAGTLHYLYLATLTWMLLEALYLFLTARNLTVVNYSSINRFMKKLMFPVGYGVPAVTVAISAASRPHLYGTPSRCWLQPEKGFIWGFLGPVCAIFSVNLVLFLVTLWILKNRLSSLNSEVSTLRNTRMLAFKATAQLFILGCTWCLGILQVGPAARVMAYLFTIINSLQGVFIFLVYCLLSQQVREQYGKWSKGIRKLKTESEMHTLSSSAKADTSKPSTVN

[2] = molecular target: T2, full-length mature cynomolgus EMR2 (residues Q24-N816) with N-terminal aspartic acid/lysine epitope tag, … (cynomolgus monkey (Macaca fascicularis), UniProt A0A2K5WL23 21-816); assay: cell-based or functional assay
T2 sequence: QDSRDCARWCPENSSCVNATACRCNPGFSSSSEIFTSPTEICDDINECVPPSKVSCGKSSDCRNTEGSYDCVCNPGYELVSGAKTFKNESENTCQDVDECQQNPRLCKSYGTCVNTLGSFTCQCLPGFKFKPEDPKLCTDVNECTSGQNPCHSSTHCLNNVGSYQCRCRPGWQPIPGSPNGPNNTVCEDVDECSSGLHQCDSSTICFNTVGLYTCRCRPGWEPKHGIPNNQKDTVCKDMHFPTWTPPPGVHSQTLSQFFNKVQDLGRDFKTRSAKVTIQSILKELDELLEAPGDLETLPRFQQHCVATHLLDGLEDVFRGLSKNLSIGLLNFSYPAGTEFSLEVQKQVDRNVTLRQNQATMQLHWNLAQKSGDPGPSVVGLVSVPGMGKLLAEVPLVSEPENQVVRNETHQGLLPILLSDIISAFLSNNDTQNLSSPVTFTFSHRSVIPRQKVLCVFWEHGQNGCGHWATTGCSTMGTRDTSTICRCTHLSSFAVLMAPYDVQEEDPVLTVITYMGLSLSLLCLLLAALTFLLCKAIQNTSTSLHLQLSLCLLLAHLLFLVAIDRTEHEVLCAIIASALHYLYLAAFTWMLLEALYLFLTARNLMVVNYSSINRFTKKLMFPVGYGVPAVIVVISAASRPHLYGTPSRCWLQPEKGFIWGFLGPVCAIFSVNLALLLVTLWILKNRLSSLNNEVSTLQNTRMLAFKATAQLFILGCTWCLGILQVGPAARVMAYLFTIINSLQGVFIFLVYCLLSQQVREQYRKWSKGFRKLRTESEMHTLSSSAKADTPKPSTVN

[3] = molecular target: T3, full-length mature human CD97 (residues Q21-I845) with N-terminal aspartic acid/lysine epitope tag, … (human, UniProt P48960 21-835); assay: cell-based or functional assay
T3 sequence (looked up): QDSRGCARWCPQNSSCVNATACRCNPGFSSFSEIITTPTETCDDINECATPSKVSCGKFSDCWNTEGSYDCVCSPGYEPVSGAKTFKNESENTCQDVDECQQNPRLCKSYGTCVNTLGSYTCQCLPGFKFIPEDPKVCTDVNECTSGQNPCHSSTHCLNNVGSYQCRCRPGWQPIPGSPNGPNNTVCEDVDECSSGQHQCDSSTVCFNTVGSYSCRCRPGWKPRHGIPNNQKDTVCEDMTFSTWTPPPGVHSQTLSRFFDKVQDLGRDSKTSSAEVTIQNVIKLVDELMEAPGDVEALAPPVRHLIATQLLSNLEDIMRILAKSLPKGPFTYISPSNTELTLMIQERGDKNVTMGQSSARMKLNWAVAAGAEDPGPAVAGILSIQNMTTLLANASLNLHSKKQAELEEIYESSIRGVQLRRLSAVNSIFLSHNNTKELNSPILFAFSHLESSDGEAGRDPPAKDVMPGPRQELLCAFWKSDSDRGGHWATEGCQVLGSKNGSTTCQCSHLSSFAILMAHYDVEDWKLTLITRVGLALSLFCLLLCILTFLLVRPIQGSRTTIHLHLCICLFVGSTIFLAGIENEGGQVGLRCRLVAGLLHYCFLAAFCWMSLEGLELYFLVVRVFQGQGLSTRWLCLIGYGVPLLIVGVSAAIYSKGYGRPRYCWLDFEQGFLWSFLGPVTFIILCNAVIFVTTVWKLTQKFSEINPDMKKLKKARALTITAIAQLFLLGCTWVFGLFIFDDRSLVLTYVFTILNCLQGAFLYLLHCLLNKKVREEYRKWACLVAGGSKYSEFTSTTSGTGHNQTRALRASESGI

[4] = molecular target: T1, full-length mature human EMR2 (residues …); assay: flow cytometry on transduced HEK293T; 293 naive MFI 97.2
Description: (§1) The exemplary antibodies were also tested using flow cytometry to determine their ability to associate with hEMR2, cEMR2 and CD97 expressed on the surface of cells.

[5] = molecular target: T2, full-length mature cynomolgus EMR2 …; assay: as above
Description: as §1

[6] = molecular target: T3, full-length mature human CD97 (residues …); assay: as above
Description: as §1

[7] = molecular target: T1, full-length mature human EMR2 (residues …); assay: flow cytometry on transduced HEK293T; 293 naive MFI 67.6
Description: as §1

[8] = molecular target: T2, full-length mature cynomolgus EMR2 …; assay: as above
Description: as §1

[9] = molecular target: T3, full-length mature human CD97 (residues …); assay: as above
Description: as §1

[10] = molecular target: T1, full-length mature human EMR2 (residues …); assay: flow cytometry on transduced HEK293T; 293 naive MFI 95.6
Description: as §1

[11] = molecular target: T2, full-length mature cynomolgus EMR2 …; assay: as above
Description: as §1

[12] = molecular target: T3, full-length mature human CD97 (residues …); assay: as above
Description: as §1

[13] = molecular target: T1, full-length mature human EMR2 (residues …); assay: cell-based or functional assay; remark: listed apart in the source
[14] = molecular target: T2, full-length mature cynomolgus EMR2 …; assay: cell-based or functional assay; remark: listed apart in the source
[15] = molecular target: T3, full-length mature human CD97 (residues …); assay: cell-based or functional assay; remark: listed apart in the source
[16] = molecular target: T3, full-length mature human CD97 (residues …); assay: flow cytometry on HEK293T cells overexpressing hCD97
Description: as §1

[17] = molecular target: T1, full-length mature human EMR2 (residues …); assay: flow cytometry on transduced HEK293T; 293 naive MFI 102
Description: as §1

[18] = molecular target: T2, full-length mature cynomolgus EMR2 …; assay: as above
Description: as §1

[19] = molecular target: T3, full-length mature human CD97 (residues …); assay: as above
Description: as §1

B1: SC93.221 (antibody, IgG1, V domains shown)
VH: QIQLVQSGSELKKPGETVKISCKASGYTFTDYSINWVKQAPGKGFKWMGWINTYTGVPTYADDFKGRFAFSLETSATTAYLQINNLKNEDTATYFCARARYDGYYGRFDYWGQGTTLTVSS
VL: DFLMTQTPLSLPVSLGDQASISCRSSQSIVHSNGDTYLEWFLQKPGQSPKLLIYKVSNRFSGVPDRFSGSGSGTDFTLKISRVEAEDLGVYYCFQGSHVPFTFGSGTKLEIK
notes: murine, IgG1
% live, FAB-saporin killing assay [1]: 101%
% live, FAB-saporin killing assay [2]: 92.2%
% live, FAB-saporin killing assay [3]: 99.1%
FC MFI [4]: 5080
FC MFI [5]: 72.5
FC MFI [6]: 74.2

B2: SC93.160 (antibody, IgG2a, V domains shown)
VH: QILLVQSGPELKKPGETVKISCKASGYTFTDYGIHWVKQAPGKGLKWMGWINTKTGVPTYADDFKGRFAFSLETSASTAYLQINNLKIEDTATYFCAGGNSLYYGSRPYWGQGTLVTVSA
VL: DIVMTQSPSSLTVTAGEKVTMSCKSSQSLLNSGNQKNYLTWYQQKPGQPPKLLIYWASTRESGVPDRFTGSGSGTDFTLTISSVQAEDLAVYYCQNDYSYPTFGSGTKLELK
notes: murine, IgG2a
% live, FAB-saporin killing assay [1]: 96.8%
% live, FAB-saporin killing assay [2]: 101%
% live, FAB-saporin killing assay [3]: 105%
FC MFI [7]: 26000
FC MFI [8]: 62.6
FC MFI [9]: 61.8

B3: SC93.219 (antibody, IgG2b, V domains shown)
VH: EVQLVESGGGLVQPGGSRKLSCAASGFTFSSYGMHWVRQAPEKGLEWVAYISSSGGTIYYADTVKGRFTISRDNAKNTLFLQMTSLRSEDTAMYYCARRGYGNSFDYWGQGTTLTVSS
VL: QIVLTQSPAIMSASPGEKVTMTCSASSSVSYMYWYQQKPGSSPRLLIYDTSNLASGVPVRFSGSGSGTSYSLTISRMEAEDAATYYCQQWSSYPPFGGGTKLEIK
notes: murine, IgG2b
% live, FAB-saporin killing assay [1]: 100%
% live, FAB-saporin killing assay [2]: 87.7%
% live, FAB-saporin killing assay [3]: 102%
FC MFI [10]: 76.2
FC MFI [11]: 85.3
FC MFI [12]: 87.5

B4: SC93.266 (antibody, V domains shown)
VH: EVKLEESGGGLVQPGGSMKLSCAASGFTFSDAWMDWVRQSPEKGLEWVAEIRSKVNNHETYYAESVKGRFTISRDDSKSSVYLQMNSLRAEDTGIYYCIRNDYFDYWGQGTTLTVSS
VL: DIQMTQTTSSLSASLGDRVTISCSASQGIRNYLNWYQQKPDGTVKLLIYYTSRLHSGVPSRFSGSGSGTDYSLTISNLEPEDIATYYCQQYGKLPYTFGGGTKLEIN
notes: Murine hybridoma antibody
% live, FAB-saporin killing assay [13]: 13.1%
% live, FAB-saporin killing assay [14]: 12.7%
% live, FAB-saporin killing assay [15]: 99.2%
binding result [16]: no binding
FC MFI [17]: 49900
FC MFI [18]: 40400
FC MFI [19]: 98.3
